Experimental data: the supplement of paper PMC10567573
± gives the standard deviation.

Experiment: protein stability index of a GFP-peptide fusion (GPS, HEK-293T) (PSI 1-6); higher = more stable
[1] = treatment: DMSO, c terminus: a fixed tail appended
[2] = treatment: MLN4924 1 uM, 8 h, c terminus: a fixed tail appended
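Also: 24-mer peptide tiles fused after GFP, lentivirally expressed, FACS-sorted into six equal bins by GFP/DsRed ratio, decoded by Illumina sequencing, PSI is the read-weighted mean bin number.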

Sequence | protein stability index [1] | protein stability index [2] | protein stability index (treatment: DMSO, c terminus: native) | protein stability index (treatment: MLN4924 1 uM, 8 h, c terminus: native)
ELTSVTAWMLCKLLDKAGVPPGVV [ALDH8A1] | 2.98 ± 0.42 | 2.69 ± 0.52 |  | 
ENLDEAREQKEKSPPDQPAVPHPP [ADD1] | 5.61 ± 0.15 | 5.66 ± 0.28 |  | 
EPAARISPLGALQHGFFRRTADEA [DYRK1B] | 4.08 ± 0.13 | 3.89 ± 0.22 |  | 
EPGAGLGIGDMAFEGDMGAAGGDG [PSD2] | 5.72 ± 0.23 | 5.61 ± 0.41 |  | 
EPIILPCSHNLCQACARNILVQTP [TRIM9] | 2.45 ± 0.18 | 2.68 ± 0.23 |  | 
EPLRILSKYHRFISFTLYLIGFCM [CDS2] | 1.95 ± 0.32 | 1.96 ± 0.16 |  | 
EPSNKTIHAELSKLVKKHAAQRST [FKBP8] | 4.49 ± 0.21 | 4.47 ± 0.3 |  | 
EPSWECKFDHIEVRDGPFGFSPII [NETO1] | 2.36 ± 0.36 | 2.3 ± 0.22 |  | 
EPVAAEPKQSGSFRYLQGMLEAGE [PDLIM4] | 4.6 ± 0.11 | 4.6 ± 0.11 |  | 
EQDMERRKADFKAGKALVISGREV [ZC3H15] | 4.8 ± 0.3 | 4.89 ± 0.18 |  | 
EQGKPVIPAAVLAGFTGSGPIQLW [ETS2] | 2.55 ± 0.43 | 2.54 ± 0.16 |  | 
ERLQLEYVDVVFANRPDPNTPMEE [KCNAB2] | 4.7 ± 0.23 | 4.75 ± 0.33 |  | 
ERRRRFNINDRIKELGTLIPKSSD [TFE3] | 4.04 ± 0.099 | 4.09 ± 0.2 |  | 
ESAAFSQGSRSGVSGGSRSLNMSR [PHTF1] | 4.44 ± 0.17 | 4.5 ± 0.23 |  | 
ESFILDQDDLENPMLETASKLLLS [ANKRD17] | 3.99 ± 0.22 | 4.1 ± 0.38 |  | 
ESKGCFANTTPSGKSVSSSSSVET [SPATS1] | 5.18 ± 0.14 | 5.19 ± 0.12 |  | 
ESLEPDAQVLMLGQILELPWKEET [FANCE] | 4.17 ± 0.11 | 4.17 ± 0.33 |  | 
ETNRLGRLINHSKCGNCQTKLHDI [KMT5A] | 2.57 ± 0.36 | 2.75 ± 0.23 |  | 
EVGKSFERHKLKRQDADAWTLYKI [SMG5] | 2.78 ± 0.4 | 2.9 ± 0.32 |  | 
EVLLGTPYDLAIDMWSLGCILVEM [DYRK1B] | 2.79 ± 0.37 | 2.96 ± 0.51 |  | 
EWDAMGGKVQDIKAREKDGKGRTA [FSD1] | 5.16 ± 0.21 | 5.35 ± 0.14 |  | 
EYDTVTREVKVLLDQLRFPNGVQL [APMAP] | 2.01 ± 0.42 | 2.22 ± 0.39 |  | 
FALLADKAAQQGKQEENDVVEKLN [SNX8] | 5.38 ± 0.13 | 5.33 ± 0.15 |  | 

Sequence | protein stability index [1] | protein stability index [2] | protein stability index (treatment: DMSO, c terminus: native) | protein stability index (treatment: MLN4924 1 uM, 8 h, c terminus: native)
FASGFKRAFKIKDFANTIPGHGGI [CDS1] | 2.65 ± 0.43 | 2.47 ± 0.66 |  | 
FATFCGGLAANGALQRLDLRNNQI [LRRC45] | 2.36 ± 0.19 | 2.37 ± 0.23 |  | 
FEAEPLPENTNRQLLLQFERLVVL [PI4K2A] | 2.12 ± 0.1 | 2.14 ± 0.26 |  | 
FEKHRWPPVWYLKEEDHYQRARKE [RHOBTB2] | 3.26 ± 0.3 | 3.52 ± 0.5 |  | 
FFVANKYWRYDEYKRSMDPGYPKM [MMP1] | 2.15 ± 0.33 | 2.16 ± 0.33 |  | 
FGAVTNVKVIRDFTTNKCKGFGFV [ELAVL3] | 2.42 ± 0.21 | 2.19 ± 0.38 |  | 
FGIGSEILKNLSQVAMRCRCSSMH [SAT1] | 2.56 ± 0.58 | 2.45 ± 0.48 |  | 
FGPGQTLLSSVHVLDLEARGYIKP [ALKBH7] | 2.43 ± 0.24 | 2.67 ± 0.3 |  | 
FHLAPARAGHHPNQYATCRLCGRQ [ZBED2] | 2.58 ± 0.41 | 3.14 ± 0.68 |  | 
FIGLEVVAQLFNCMVGLLLIALLT [ATL3] | 3.08 ± 0.3 | 3.39 ± 0.28 |  | 
FIPAKTGKDVATQILEGELFDFDL [RSPH3] | 2.7 ± 0.48 | 2.89 ± 0.56 |  | 
FLHVRKATRAMGLLNTLSLAFVGG [TMEM175] | 2.16 ± 0.59 | 1.98 ± 0.35 |  | 
FLLSQQTDLPECEQSSARQKASLL [TCF25] | 3.78 ± 0.52 | 3.83 ± 0.12 |  | 
FLRGPSGPRFGPRNDKIKHVQNQV [VAMP4] | 2.93 ± 0.27 | 3.39 ± 0.31 |  | 
FLRQLRASHLGNELEGTEELCCVA [C2CD2L] | 2.98 ± 0.1 | 3.19 ± 0.3 |  | 
FLSDVTAAVKENQMTPTNLAVCLA [DLC1] | 2.72 ± 0.23 | 2.92 ± 0.29 |  | 
FLWGPRALIETSYVKVLHHMVKIS [MAGEA6] | 2.14 ± 0.89 | 2.59 ± 0.65 |  | 
FMYNLVQFLGFSWIFVNLTVRFCI [HACD3] | 3.58 ± 1.3 | 2.82 ± 0.15 |  | 
FPFSLLGLLALAIGLWGLAVKGSL [TSPAN10] | 3.33 ± 0.37 | 3.14 ± 0.27 |  | 
FRVLCTAPAKYTVFDAEGYVKPQS [MOSPD3] | 2.02 ± 0.35 | 2.19 ± 0.53 |  | 
FSVVRRCMKIPTGQEYAAKIINTK [CAMK2D] | 2.3 ± 0.1 | 2.31 ± 0.36 |  | 
FTAKHANKVKVLDAPVPDCLGVHC [FSD1] | 2.75 ± 0.26 | 3.04 ± 0.31 |  | 
FTGELAESRQTEVVIRDIDERAME [KLHL20] | 4.69 ± 0.21 | 4.89 ± 0.33 |  | 

Sequence | protein stability index [1] | protein stability index [2] | protein stability index (treatment: DMSO, c terminus: native) | protein stability index (treatment: MLN4924 1 uM, 8 h, c terminus: native)
FTQNQIEVLENVFRVNCYPGIDIR [HESX1] | 2.42 ± 0.4 | 2.14 ± 0.68 |  | 
FYLPSSPNLSLASEDEEEYESGYA [SMG5] | 4.55 ± 0.067 | 4.59 ± 0.21 |  | 
FYSAEIICAIEYLHSKEIVYRDLK [PRKX] | 2.96 ± 0.76 | 2.51 ± 0.45 |  | 
GAAESPYGHPAGIDYKTTTILLDG [RAB40B] | 4 ± 0.067 | 3.96 ± 0.25 |  | 
GAERKAALCELLEKETQIIASIGR [IQUB] | 3.21 ± 0.61 | 3.2 ± 0.2 |  | 
GANINAFDKKDRRALHWAAYMGHL [ANKRD44] | 2.3 ± 0.21 | 2.36 ± 0.31 |  | 
GCILQWKKIYCRICMAQIAYSGNT [ZBED1] | 2.23 ± 0.81 | 2.28 ± 0.76 |  | 
GEAGWGAGEGRLGHKRKQPLPKRV [FOXJ1] | 4.5 ± 0.16 | 4.59 ± 0.26 |  | 
GEEEAESSISSTSNEQLKVTQEPR [ZMYND11] | 5.59 ± 0.11 | 5.46 ± 0.28 |  | 
GEGRKSRKFSRLSCLRRRRHPPKV [SMG5] | 3.69 ± 0.37 | 3.82 ± 0.28 |  | 
GFFDFETFDVDEYEHYERVENGDF [CDC14A] | 4.14 ± 0.51 | 4.49 ± 0.52 |  | 
GFTKEQQRLGIPKDPRQWTETHVR [ETS1] | 3.25 ± 0.58 | 3.27 ± 0.25 |  | 
GFTTATEFHQRRSEIIQITTGSKE [RAD51] | 4.22 ± 0.44 | 4.35 ± 0.47 |  | 
GGAEMRTQHWPIRLDGQQEPQPFV [MYORG] | 3.86 ± 0.27 | 3.85 ± 0.13 |  | 
GGDAGHAPFPPPPAADGARAPRSP [C6orf223] | 5.39 ± 0.28 | 5.5 ± 0.27 |  | 
GGEEEDEDENIEVVYSKAASVPKV [EIF5] | 5.18 ± 0.14 | 4.93 ± 0.47 |  | 
GGGEGHQPAGNRRGQARRLAPNFR [BEX3] | 4.93 ± 0.17 | 4.92 ± 0.26 |  | 
GGGNARATGMFLQYTVPGTEGVTQ [ZFYVE21] | 3.51 ± 0.35 | 3.57 ± 0.18 |  | 
GGMALGVAGLAGLIGLAVSKSKS [FIS1] |  |  | 2.35 ± 0.34 | 1.78 ± 0.27
GGYGSSFGGVDGLLAGGEKATMQN [KRT17] | 4.06 ± 0.12 | 4.395 ± 0.027 |  | 
GHHQGMPGYLPGAMPPYGQGPPMV [ZNF207] | 2.86 ± 0.43 | 2.84 ± 0.2 |  | 
GHLSKDVDENDSHEGEDQFLSLEA [DLC1] | 5.63 ± 0.17 | 5.54 ± 0.077 |  | 
GHRSIYLALKLPDGSYALNGEYTL [ADAMTS4] | 2.96 ± 0.94 | 2.63 ± 0.67 |  | 

Sequence | protein stability index [1] | protein stability index [2] | protein stability index (treatment: DMSO, c terminus: native) | protein stability index (treatment: MLN4924 1 uM, 8 h, c terminus: native)
GKAATMEIPIHGNGEARQLPEDDG [ARFIP2] | 5.58 ± 0.15 | 5.34 ± 0.21 |  | 
GKDSRWLPSLVLARLVFVPLLLLC [SLC29A1] | 2.68 ± 0.78 | 2.48 ± 0.45 |  | 
GKEFGYFPRDAVQIEEVFISEEIQ [MIA2] | 3.88 ± 0.42 | 3.77 ± 0.45 |  | 
GKRYCRGKVLGKGGFAKCYEMTDL [PLK2] | 2.79 ± 0.35 | 2.92 ± 0.27 |  | 
GLGELGAALLQLVRRLQALRLERE [ESRRA] | 2.66 ± 0.21 | 2.54 ± 0.14 |  | 
GLKLIQIQDNGTGIRKEDLDIVCE [MLH1] | 3.56 ± 0.37 | 3.87 ± 0.75 |  | 
GLLSLLLPETLNSPLLETFSDLQV [SLC22A15] | 2.47 ± 0.67 | 2.68 ± 0.68 |  | 
GLQSYQQALLRISLDKVQRSLGPR [SERTAD3] | 2.43 ± 0.27 | 2.26 ± 0.36 |  | 
GLSLCQFQNFSLHDPLYGKLFSTY [LPCAT4] | 1.81 ± 0.56 | 2.06 ± 0.21 |  | 
GLSQVLLRGGGQVLLGWTLHYFPF [POMT2] | 2.95 ± 0.26 | 2.97 ± 0.64 |  | 
GMEGLLGTLVQLLGSDDINVVTCA [CTNNB1] | 2.34 ± 0.55 | 2.46 ± 0.15 |  | 
GMSYLYASWMYQLQHGDQLSICFT [TEX19] | 3 ± 0.39 | 2.92 ± 0.42 |  | 
GNDSFQLQVTEDVNSSIKTFFCPN [CLCN6] | 3.54 ± 0.31 | 3.6 ± 0.26 |  | 
GNPDPEITWFKDFLPVDTSNNNGR [PTPRD] | 4.27 ± 0.31 | 4.76 ± 0.26 |  | 
GNPEPVSYYIIQHKPKNSEELYKE [PTPRD] | 3.77 ± 0.34 | 3.47 ± 0.54 |  | 
GNTVPAVEPGTPPLDILAQPLEAS [DNAAF3] | 5.19 ± 0.18 | 5.03 ± 0.29 |  | 
GPADCSPPHPAPAPQHPAASALRT [DYRK1B] | 4.81 ± 0.24 | 4.92 ± 0.15 |  | 
GPDGQEMDPPNPEEVKTPEEEMRS [GAGE1] | 5.7 ± 0.3 | 5.38 ± 0.42 |  | 
GPRPVQSVVPEMEESGAQLLLEML [CDK4] | 3.91 ± 0.66 | 3.71 ± 0.15 |  | 
GPTGVTMTSNPITWGQIKKTTQEA [CDK11A] | 4.55 ± 0.21 | 4.51 ± 0.4 |  | 
